± gives the standard deviation of the averaged measurements.
Assay: total protein half-life in vivo (active degradation + dilution); higher = more stable protein
[1] = E. coli NCM3722 delta-clpP delta-lon delta-hslV, growth: N-lim chemostat, doubling time 6 h
[2] = E. coli NCM3722 delta-clpP, growth: N-lim chemostat, doubling time 6 h
[3] = E. coli NCM3722 delta-hslV, growth: N-lim chemostat, doubling time 6 h
[4] = E. coli NCM3722 delta-lon, growth: N-lim chemostat, doubling time 6 h
[5] = E. coli NCM3722 delta-smpB, growth: N-lim chemostat, doubling time 6 h
[6] = wild type E. coli NCM3722, growth: C-lim chemostat, doubling time 6 h
[7] = wild type E. coli NCM3722, growth: C-lim chemostat, doubling time 12 h
[8] = wild type E. coli NCM3722, growth: N-lim chemostat, doubling time 6 h
[9] = wild type E. coli NCM3722, growth: N-lim chemostat, doubling time 12 h
[10] = wild type E. coli NCM3722, growth: P-lim chemostat, doubling time 12 h
[11] = wild type E. coli NCM3722, growth: C-lim chemostat, doubling time 3 h
[12] = wild type E. coli NCM3722, growth: P-lim chemostat, doubling time 6 h

Sequence	total protein half-life in vivo [1]	total protein half-life in vivo [2]	total protein half-life in vivo [3]	total protein half-life in vivo [4]	total protein half-life in vivo [5]	total protein half-life in vivo [6]	total protein half-life in vivo [7]	total protein half-life in vivo [8]	total protein half-life in vivo [9]	total protein half-life in vivo [10]	total protein half-life in vivo [11]	total protein half-life in vivo [12]
MPGRFELKPTLEKVWHAPDNFRFMDPLPPMHRRGIIIAAIVLVVGFLLPSDDTPNAPVVTREAQLDIQSQSQPPTEEQLRAQLVTPQNDPDQVAPVAPEPIQEGQPEEQPQTTQTQPFQPDSGIDNQWRSYRVEPGKTMAQLFRDHGLPATDVYAMAQVEGAGKPLSNLQNGQMVKIRQNASGVVTGLTIDTGNNQQVLFTRQPDGSFIRAR	5.6 ± 0.12 h	6.35 ± 0.2 h	5.57 ± 0.45 h	6.65 ± 0.27 h	6.12 ± 0.68 h	5 ± 0.64 h	9.18 ± 0.36 h	5.79 ± 1.1 h	11.4 ± 0.3 h	8.86 ± 0.21 h		
MPHHIVIVEDEPVTQARLQSYFTQEGYTVSVTASGAGLREIMQNQSVDLILLDINLPDENGLMLTRALRERSTVGIILVTGRSDRIDRIVGLEMGADDYVTKPLELRELVVRVKNLLWRIDLARQAQPHTQDNCYRFAGYCLNVSRHTLERDGEPIKLTRAEYEMLVAFVTNPGEILSRERLLRMLSARRVENPDLRTVDVLIRRLRHKLSADLLVTQHGEGYFLAADVC	5.18 ± 0.63 h	4.57 ± 0.43 h		4.9 h	3.92 ± 0.089 h	5.13 ± 0.33 h	9.618 ± 0.075 h	3.89 ± 0.33 h	5.93 h	9.93 ± 0.41 h	2.78 ± 0.039 h	4.28 h
MPHIDIKCFPRELDEQQKAALAADITDVIIRHLNSKDSSISIALQQIQPESWQAIWDAEIAPQMEALIKKPGYSMNA												2.92 h
MPHSDELDAGNVLAVENLNIAFMQDQQKIAAVRNLSFSLQRGETLAIVGESGSGKSVTALALMRLLEQAGGLVQCDKMLLQRRSREVIELSEQNAAQMRHVRGADMAMIFQEPMTSLNPVFTVGEQIAESIRLHQNASREEAMVEAKRMLDQVRIPEAQTILSRYPHQLSGGMRQRVMIAMALSCRPAVLIADEPTTALDVTIQAQILQLIKVLQKEMSMGVIFITHDMGVVAEIADRVLVMYQGEAVETGTVEQIFHAPQHPYTRALLAAVPQLGAMKGLDYPRRFPLISLEHPAKQAPPIEQKTVVDGEPVLRVRNLVTRFPLRSGLLNRVTREVHAVEKVSFDLWPGETLSLVGESGSGKSTTGRALLRLVESQGGEIIFNGQRIDTLSPGKLQALRRDIQFIFQDPYASLDPRQTIGDSIIEPLRVHGLLPGKDAAARVAWLLERVGLLPEHAWRYPHEFSGGQRQRICIARALALNPKVIIADEAVSALDVSIRGQIINLLLDLQRDFGIAYLFISHDMAVVERISHRVAVMYLGQIVEIGPRRAVFENPQHPYTRKLLAAVPVAEPSRQRPQRVLLSDDLPSNIHLRGEEVAAVSLQCVGPGHYVAQPQSEYAFMRR	5.29 ± 0.17 h	3.52 ± 0.092 h	4 ± 0.11 h	4.37 ± 0.63 h	3.88 ± 0.28 h	3.9527 ± 0.00027 h	6.1 ± 0.44 h	3.6 ± 0.015 h	7.19 ± 1.5 h	6.87 ± 0.34 h	2.37 ± 0.21 h	4.059 ± 0.034 h
MPHSLFSTDTDLTAENLLRLPAEFGCPVWVYDAQIIRRQIAALKQFDVVRFAQKACSNIHILRLMREQGVKVDSVSLGEIERALAAGYNPQTHPDDIVFTADVIDQATLERVSELQIPVNAGSVDMLDQLGQVSPGHRVWLRVNPGFGHGHSQKTNTGGENSKHGIWYTDLPAALDVIQRHHLQLVGIHMHIGSGVDYAHLEQVCGAMVRQVIEFGQDLQAISAGGGLSVPYQQGEEAVDTEHYYGLWNAAREQIARHLGHPVKLEIEPGRFLVAQSGVLITQVRSVKQMGSRHFVLVDAGFNDLMRPAMYGSYHHISALAADGRSLEHAPTVETVVAGPLCESGDVFTQQEGGNVETRALPEVKAGDYLVLHDTGAYGASMSSNYNSRPLLPEVLFDNGQARLIRRRQTIEELLALELL	3.43 ± 0.39 h	2.81 ± 0.36 h	2.41 ± 0.37 h		2.06 ± 0.69 h	4.76 ± 0.92 h	8.09 ± 0.86 h	2.53 ± 0.12 h	3.6 ± 0.33 h	9.66 ± 0.16 h	2.91 ± 0.14 h	5.29 ± 0.3 h
MPHSYDYDAIVIGSGPGGEGAAMGLVKQGARVAVIERYQNVGGGCTHWGTIPSKALRHAVSRIIEFNQNPLYSDHSRLLRSSFADILNHADNVINQQTRMRQGFYERNHCEILQGNARFVDEHTLALDCPDGSVETLTAEKFVIACGSRPYHPTDVDFTHPRIYDSDSILSMHHEPRHVLIYGAGVIGCEYASIFRGMDVKVDLINTRDRLLAFLDQEMSDSLSYHFWNSGVVIRHNEEYEKIEGCDDGVIMHLKSGKKLKADCLLYANGRTGNTDSLALQNIGLETDSRGQLKVNSMYQTAQPHVYAVGDVIGYPSLASAAYDQGRIAAQALVKGEATAHLIEDIPTGIYTIPEISSVGKTEQQLTAMKVPYEVGRAQFKHLARAQIVGMNVGTLKILFHRETKEILGIHCFGERAAEIIHIGQAIMEQKGGGNTIEYFVNTTFNYPTMAEAYRVAALNGLNRLF	4.47 ± 0.55 h	3.95 ± 0.2 h	4.17 ± 0.28 h	3.85 ± 0.34 h	4.01 ± 0.21 h	6.09 ± 0.52 h	10.5 ± 0.61 h	4.46 ± 0.093 h	6.87 ± 0.64 h	12.2 ± 0.42 h	2.74 ± 0.36 h	6.15 ± 0.82 h

Reference: the supplement of paper PMC11246515
